From US20170137511A1 (CALYPSO BIOTECH, published 2017)

Legend:
[1] = target: T1, recombinant human IL-15 (Prospec cat no. CYT230) (human, UniProt P40933 49-162); assay: ELISA, plate-bound human IL-15; printed as BC50 (half-maximal binding concentration)
Method: (§1) Maxisorp plates were coated with recombinant human IL-15 (Prospec cat no. CYT230) or Rhesus macaque IL-15 (MyBiosource cat. no. MBS948894) at 100 ng/well in carbonate coating buffer for 2 hours at 37° C. Since published sequences of Rhesus macaque and Cynomolgus monkey IL-15 are identical, such recombinant IL-15 protein was referred to as Macaque Monkey IL-15. Tested human IL-15 recombinant protein has a sequence identical to that provided in SEQ ID NO: 1 but with an additional methionine at the N-terminal position as usually done for expressing recombinant proteins in E. Coli. Tested recombinant Macaque Monkey IL-15 was produced in yeast and has a sequence identical to that provided in SEQ ID NO: 4 but with an additional N-terminal His tag.
(§2) The plate was then blocked with 2% normal goat serum for 30 min at 37° C. and washed 6 times with PBS-Tween (0.05% Tween-20 in PBS, v/v). Test antibodies were added to the plate in triplicate at various dilutions in PBS-Tween and the plate was incubated with gentle rocking at room temperature for 2 hours. The plate was then washed 6 times with PBS-Tween and an appropriate dilution of goat anti-human IgG antibody (Millipore cat. no. AP309P) conjugated to horseradish peroxidase (HRP) was added to the plate and left rocking at room temperature for 1 hour. The plate was then washed 6 times with PBS-Tween and incubated with TMB substrate. The reaction was stopped by the addition of 1M H₂SO₄ and read at 450 nm. Dose response curves of absorbance versus concentration were plotted and analyzed to determine half-maximal binding concentrations (BC₅₀) using the Graphpad Prism software. BC₅₀ values expressed as molarity were extrapolated from concentration in ng/ml using a 150 kDa molecular weight value for all antibodies.

[2] = target: T2, recombinant Macaque Monkey IL-15 (MyBiosource cat. no. MBS948894) (Rhesus macaque / Cynomolgus monkey, UniProt P40221 49-162 (Chlorocebus aethiops entry)); assay: ELISA, plate-bound Macaque Monkey IL-15; printed as BC50 (half-maximal binding concentration)
T2 construct: Produced in yeast; also called Rhesus macaque IL-15; recombinant monkey IL-15; not shown: additional N-terminal His tag
Method: as §1, §2

[3] = target: recombinant human IL-2 (R&D Systems cat. no. 202-IL-010) (human, UniProt P60568 21-153); assay: ELISA, plate-bound recombinant human IL-2 (100 ng/well), HRP goat anti-human IgG, absorbance at 450 nm
Method: Maxisorp plates were coated with recombinant human IL-2 (R&D Systems cat. no. 202-IL-010) of SEQ ID NO: 38 at 100 ng/well in carbonate coating buffer for 2 hours at 37° C. The plate was then blocked with 2% normal goat serum for 30 min at 37° C. and washed 4 times with PBS-Tween (0.05% Tween-20 in PBS, v/v). Test antibodies or positive control biotinylated antibody (anti-IL-2 Novus Bio cat. no. NBP1-43491) were added to the plate in duplicate at 5 μg/ml in PBS-Tween and the plate was incubated with gentle rocking at room temperature for 2 hours. The plate was then washed 4 times with PBS-Tween and an appropriate dilution of goat anti-human IgG antibody (Millipore cat. no. AP309P) conjugated to horseradish peroxidase (HRP) for test antibodies, or streptavidin-HRP for positive control antibody, was added to the plate and left rocking at room temperature for 1 hour. The plate was then washed 4 times with PBS-Tween and incubated with TMB (3,3′,5,5′-tetramethylbenzidine) substrate. The reaction was stopped by the addition of 1 M H₂SO₄ and read at 450 nm.

[4] = target: T2, recombinant Macaque Monkey IL-15 …; assay: cell-based or functional assay
[5] = target: T3, recombinant human IL-15 (R&D systems cat. no. 247-IL) (human, UniProt P40933 49-162); assay: cell-based or functional assay
[6] = target: T3, recombinant human IL-15 (R&D systems …); assay: cell-based or functional assay; remark: listed apart in the source
[7] = target: T1, recombinant human IL-15 (Prospec cat …); assay: SPR (Biacore 3000), human IL-15 amine-coupled to the chip, antibody injected, 1:1 Langmuir fit
Method: Human IL-15 (Prospec cat no. CYT230) was immobilized onto a CMS chip (GE Healthcare) using standard amine coupling, and antibodies injected at various concentrations in 120 μl phosphate buffer saline with a flow rate of […]. Binding kinetics were analyzed on a Biacore 3000 apparatus (GE Healthcare) with a 300 seconds dissociation period. Reference signal and 0 nM antibody concentration signal were substracted and data fitted using a 1:1 (Langmuir) binding model.

[8] = target: T4, recombinant rat IL-15 (Sigma cat. no. SRP4172) (rat, UniProt P97604 49-162); assay: ELISA, plate-bound recombinant rat IL-15 (100 ng/well), HRP goat anti-human IgG, absorbance at 450 nm
T4 sequence: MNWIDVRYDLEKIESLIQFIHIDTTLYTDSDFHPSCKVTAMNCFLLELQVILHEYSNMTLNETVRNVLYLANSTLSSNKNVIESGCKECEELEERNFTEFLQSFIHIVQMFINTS
Method: (§3) Maxisorp plates were coated with recombinant mouse IL-15 (R&D Systems cat. no. 447-ML) or rat IL-15 (Sigma cat. no. SRP4172) at 100 ng/well in carbonate coating buffer for 2 hours at 37° C. Tested IL-15 recombinant proteins have a sequence identical to that provided in SEQ ID NO: 2 (mouse IL-15) and SEQ ID NO: 3 (rat IL-15) but with an additional methionine at the N-terminal position as usually done for expressing recombinant proteins in E. Coli.
(§4) The plate was then blocked with 2% normal goat serum for 30 min at 37° C. and washed 6 times with PBS-Tween (0.05% Tween-20 in PBS, v/v). Test antibodies were added to the plate in triplicate at various dilutions in PBS-Tween and the plate was incubated with gentle rocking at room temperature for 2 hours. As positive controls, rabbit-anti-mouse IL-15 (Acris cat. no. AP01124PU-S) or rabbit anti-rat IL-15 (Biovision cat. no. 5172) antibodies were tested at the same concentrations. The plate was then washed 6 times with PBS-Tween and an appropriate dilution of HRP-conjugated goat anti-human IgG antibody (Millipore cat. no. AP309P) for humanized antibodies, or goat-anti-rabbit IgG antibody (Sigma cat. no. A 4416) for the positive controls was added and the plate was left rocking at room temperature for 1 hour. The plate was then washed 6 times with PBS-Tween and incubated with TMB substrate. The reaction was stopped by the addition of 1M H₂SO₄ and read at 450 nm. Dose response curves of absorbance versus concentration were plotted using the Graphpad Prism software.

[9] = target: T5, recombinant mouse IL-15 (R&D Systems cat. no. 447-ML) (mouse, UniProt P48346 49-162); assay: ELISA, plate-bound recombinant mouse IL-15 (100 ng/well), HRP goat anti-human IgG, absorbance at 450 nm
T5 sequence: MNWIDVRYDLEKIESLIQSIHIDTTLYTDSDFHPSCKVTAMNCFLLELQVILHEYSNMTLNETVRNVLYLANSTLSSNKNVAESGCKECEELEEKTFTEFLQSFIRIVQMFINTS
Method: as §3, §4

[10] = target: T6, human IL-15 (preparation not stated) (human, UniProt P40933 49-162, limits assumed); assay: ELISA
T6 construct: also called recombinant IL-15; recombinant human IL-15
T6 sequence (P40933 49-162 limits assumed): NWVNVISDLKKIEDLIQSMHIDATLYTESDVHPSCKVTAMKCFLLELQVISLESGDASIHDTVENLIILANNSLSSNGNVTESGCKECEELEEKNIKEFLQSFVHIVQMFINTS

T3 sequence (P40933 49-162 limits assumed): as above
T2 sequence (P40221 49-162): as the sequence (P40933 49-162 limits assumed) above, with L52H, A57T, S58D, S73I, V80I counted along it
T1 sequence (P40933 other isoform, or with tags, fused parts or gaps): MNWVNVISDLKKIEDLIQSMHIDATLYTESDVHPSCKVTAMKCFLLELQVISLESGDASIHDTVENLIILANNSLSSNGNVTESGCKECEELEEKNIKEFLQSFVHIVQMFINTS
Chain of recombinant human IL-2 (R&D Systems cat. no. 202-IL-010) (P60568 21-153 limits assumed): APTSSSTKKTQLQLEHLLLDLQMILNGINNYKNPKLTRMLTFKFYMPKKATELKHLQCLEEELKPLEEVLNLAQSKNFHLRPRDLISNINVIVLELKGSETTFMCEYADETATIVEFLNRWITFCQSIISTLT

B1: huB-E29-4 (antibody, human IgG1, kappa, V domains shown)
VH: EVRLMASGGGLVQPGGSLRLSCAASEFTFSNYAMSWVRQAPGKGLEWVATISRGGDYTYYPDSVKGRFTISRDNSKNTLYLQMNSLRAEDTAVYYCARRVSMITGGWAMDYWGQGTLVTVSS
VL: DVVMTQSPLSLPVTLGQPASISCRSSQSIVDITGNTYLEWFQQRPGQSPRLLIYKVFNRFSGVPDRFSGSGSGTDFTLKISRVEAEDVGVYYCFQDSFVPYTFGQGTKLEIKR
notes: Humanized B-E29 variant; human IgG1 (G1m3) / kappa (Km3), produced in CHO cells; also called huVH1/huVL2
[1]
  EC50: 1.01 nM
[2]
  EC50: 0.5 nM
[3]
  binding result: no binding (tested: 5 µg/ml)

B2: huB-E29-5 (antibody, human IgG1, kappa, V domains shown)
VH: EVRLMASGGGLVQPGGSLRLSCAASEFTFSNYAMSWVRQAPGKGLEWVATISRGGDYTYYPDSVKGRFTISRDNSKNTLYLQMNSLRAEDTAVYYCARRVSMITGGWAMDYWGQGTLVTVSS
VL: DVVMTQSPLSLPVTLGQPASISCRSSQSIVDITGNTYLEWYQQRPGQSPRRLIYKVFNRFSGVPDRFSGSGSGTDFTLKISRVEAEDVGVYYCFQDSFVPYTFGQGTKLEIKR
notes: Humanized B-E29 variant; human IgG1 (G1m3) / kappa (Km3), produced in CHO cells; also called huVH1/huVL3
[1]
  EC50: 1.47 nM
[2]
  EC50: 0.453 nM

B3: huB-E29-7 (antibody, human IgG1, kappa, V domains shown)
VH: EVRLMASGGGLVQPGGSLRLSCAASEFTFSNYAMSWVRQAPGKGLEWVATISRGGDYTYYPESVKGRFTISRDNSKNTLYLQMNSLRAEDTAVYYCARRVSFITGGWAMDYWGQGTLVTVSS
VL: DVVMTQSPLSLPVTLGQPASISCRSSQSIVDITGNTYLEWYQQRPGQSPRLLIYKVFNRFSGVPDRFSGSGSGTDFTLKISRVEAEDVGVYYCFQDSFVPYTFGQGTKLEIKR
notes: Humanized B-E29 variant; human IgG1 (G1m3) / kappa (Km3), produced in CHO cells; also called huVH5/huVL1
[1]
  EC50: 0.84 nM
[2]
  EC50: 0.433 nM

B4: huB-E29-10 (antibody, human IgG1, kappa, V domains shown)
VH: EVRLMASGGGLVQPGGSLRLSCAASEFTFSNYAMSWVRQAPGKGLEWVATISRGGDYTYYPDTVKGRFTISRDNSKNTLYLQMNSLRAEDTAVYYCARRVSMITGGYAMDYWGQGTLVTVSS
VL: DVVMTQSPLSLPVTLGQPASISCRSSQSIVDITGNTYLEWYQQRPGQSPRLLIYKVFNRFSGVPDRFSGSGSGTDFTLKISRVEAEDVGVYYCFQDSFVPYTFGQGTKLEIKR
notes: Humanized B-E29 variant; human IgG1 (G1m3) / kappa (Km3), produced in CHO cells; also called huVH8/huVL1
[4]
  IC50 in Kit 225 cells (nM), Macaque Monkey IL-15: 17.5 nM
  IC50 in M-07e cells (nM), Macaque Monkey IL-15: 41.3 nM
[5]
  IC50 in Kit 225 cells (nM), Human IL-15: 17 nM
  IC50 in M-07e cells (nM), Human IL-15: 4.2 nM
[6]
  IC50 in M07e cells for IL-15 trans presentation: 0.53 nM
[1]
  EC50: 0.507 nM
[2]
  EC50: 0.353 nM
[7]
  Kd: 0.295 nM
  koff: 0.000423 s⁻¹
  kon: 1.43e+06 M⁻¹ s⁻¹
[8]
  binding result: no binding (tested: log 3.7 (about 5000 ng/mL))
[3]
  binding result: no binding (tested: 5 µg/ml)
[9]
  binding result: no binding (tested: log 3.7 (about 5000 ng/mL))

B5: huB-E29-14 (antibody, human IgG1, kappa, V domains shown)
VH: EVRLMASGGGLVQPGGSLRLSCAASEFTFSNYAMSWVRQAPGKGLEWVATISRGGDYTYYPDSVKGRFTISRDNSKNTLYLQMNSLRAEDTAVYYCARRVSMITGGWAFDYWGQGTLVTVSS
VL: DVVMTQSPLSLPVTLGQPASISCRSSQSIVDITGNTYLEWYQQRPGQSPRLLIYKVFNRFSGVPDRFSGSGSGTDFTLKISRVEAEDVGVYYCFQDSFVPYTFGQGTKLEIKR
notes: Humanized B-E29 variant; human IgG1 (G1m3) / kappa (Km3), produced in CHO cells; also called huVH12/huVL1
[1]
  EC50: 0.813 nM
[2]
  EC50: 0.347 nM

B6: huB-E29-18 (antibody, human IgG1, kappa, V domains shown)
VH: EVRLMASGGGLVQPGGSLRLSCAASEFTFSNYAMSWVRQAPGKGLEWVATISRGGDYTYYPDSVKGRFTISRDNSKNTLYLQMNSLRAEDTAVYYCARRVSMITGGWAMDYWGQGTLVTVSS
VL: DVVMTQSPLSLPVTLGQPASISCRSSQSIVDITGNTYLEWYQQRPGQSPRLLIYKVFNRFSGVPDRFSGSGSGTDFTLKISRVEAEDVGVYYCFQESFVPYTFGQGTKLEIKR
notes: Humanized B-E29 variant; human IgG1 (G1m3) / kappa (Km3), produced in CHO cells; also called huVH1/huVL4
[1]
  EC50: 0.693 nM
[2]
  EC50: 0.367 nM

B7: huB-E29-24 (antibody, human IgG1, kappa, V domains shown)
VH: EVQLVESGGGLVQPGGSLRLSCAASEFTFSNYAMSWVRQAPGKGLEWVATISRGGDYTYYPDSVKGRFTISRDNSKNTLYLQMNSLRAEDTAVYYCARRVSMITGGYAMDYWGQGTLVTVSS
VL: DVVMTQSPLSLPVTLGQPASISCRSSQSIVDITGNTYLEWYQQRPGQSPRLLIYKVFNRFSGVPDRFSGSGSGTDFTLKISRVEAEDVGVYYCFQDSFVPYTFGQGTKLEIKR
notes: Humanized B-E29 variant; human IgG1 (G1m3) / kappa (Km3), produced in CHO cells; also called huVH18/huVL1
[4]
  IC50 in Kit 225 cells (nM), Macaque Monkey IL-15: 26.7 nM
  IC50 in M-07e cells (nM), Macaque Monkey IL-15: 10.4 nM
[5]
  IC50 in Kit 225 cells (nM), Human IL-15: 29.3 nM
  IC50 in M-07e cells (nM), Human IL-15: 19.1 nM
[6]
  IC50 in M07e cells for IL-15 trans presentation: 0.65 nM
[1]
  EC50: 0.647 nM
[2]
  EC50: 0.113 nM
[7]
  Kd: 0.329 nM
  koff: 0.000574 s⁻¹
  kon: 1.75e+06 M⁻¹ s⁻¹
[8]
  binding result: no binding (tested: log 3.7 (about 5000 ng/mL))
[9]
  binding result: no binding (tested: log 3.7 (about 5000 ng/mL))

B8: cVH1:cVK1 (antibody, human IgG1, kappa, V domains shown)
VH: EVRLMASGGGLVKPGGSLKLSCAASEFTFSNYAMSWVRQTPEKRLEWVATISRGGDYTYYPDSVKGRFTISRDNAKNTLYLQMSSLRSEDTALYYCARRVSMITGGWAMDYWGQGTSVTVSS
VL: DVLMTQTPLSLPVSLGDQASISCRSSQSIVDITGNTYLEWYLQKPGQSPKLLIYKVFNRFSGVPDRFSGSGSGTDFTLKISRVEAEDLGLYYCFQDSFVPYTFGGGTKLEIKR
notes: Mouse B-E29 variable regions on human IgG1 (G1m3) / kappa (Km3); also called chimeric B-E29
[10]
  binding result: binds
